Assay results published in article PMC9768791 (2022).

Key:
Assay in all cases: activation reporter or marker
[1] = molecular target: T1, ICKp.P591T peptide on HLA-B*39:01 (human)
T1 peptide: MRTHPGRPFF

[2] = molecular target: T2, PREPp.G384A peptide on HLA-B*35:01 (human)
T2 peptide: FPLDVGSIVAY

[3] = molecular target: T3, PPP5Cp.E428K peptide on HLA-A*24:02 (human)
T3 peptide: DYIIRSHKV

[4] = molecular target: T4, CLSTN1p.L289M peptide on HLA-B*35:01 (human)
T4 peptide: FPNIHMETC

[5] = molecular target: T5, ICKp.P591T peptide on HLA-C*12:02 (human)
T5 peptide: RTHPGRPFF

[6] = molecular target: T6, TENM4p.E1133D peptide on HLA-C*05:01 (human)
T6 peptide: LSDAFVSV

[7] = molecular target: T7, PDS5Bp.L203V peptide on HLA-A*02:01 (human)
T7 peptide: LLDTVLVNV

[8] = molecular target: T8, VPS13Bp.G2602E peptide on HLA-A*02:01 (human)
T8 peptide: FVNLEQHVV

[9] = molecular target: T9, GPSM2p.D77A peptide on HLA-C*03:03 (human)
T9 peptide: YLHAYAKAL

[10] = molecular target: T10, GALNT2p.L14R peptide on HLA-B*35:01 (human)
T10 peptide: FAFRWVLGIAY

[11] = molecular target: T11, MTHFRp.R238H peptide on HLA-B*40:01 (human)
T11 peptide: FEADTFFHFV

[12] = molecular target: T12, CEBPZp.S100F peptide on HLA-A*24:02 (human)
T12 peptide: KYTKAFLV

[13] = molecular target: T13, SVILp.E1748D peptide on HLA-A*02:01 (human)
T13 peptide: RQFDITSVSV

[14] = molecular target: T14, STRADAp.M189V peptide on HLA-A*01:01 (human)
T14 peptide: ALDYIHHVGYV

[15] = molecular target: T15, UAP1p.H469Y peptide on HLA-A*02:01 (human)
T15 peptide: ITADVNYNL

[16] = molecular target: T16, UGGT2p.L880V peptide on HLA-C*12:02 (human)
T16 peptide: FVGPLDEDF

[17] = molecular target: T17, STRADAp.M189V peptide on HLA-C*07:01 (human)
T17 peptide: KALDYIHHV

[18] = molecular target: T18, CLSTN1p.L289M peptide on HLA-C*03:03 (human)
T18 peptide: LAVFPNIHM

B1: TCR687 (TCR, V domains shown)
Valpha: AQSVTQLGSHVSVSEGALVLLRCNYSSSVPPYLFWYVQYPNQGLQLLLKYTSAATLVKGINGFEAEFKKSETSFHLTKPSAHMSDAAEYFCAVTDSNYQLIWGAGTKLIIKP
Vbeta: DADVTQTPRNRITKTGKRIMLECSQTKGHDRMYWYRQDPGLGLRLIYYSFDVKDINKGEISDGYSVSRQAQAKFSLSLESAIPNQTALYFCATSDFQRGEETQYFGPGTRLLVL
B1: recognises [1].

B2: TCR692 (TCR, V domains shown)
Valpha: GEDVEQSLFLSVREGDSSVINCTYTDSSSTYLYWYKQEPGAGLQLLTYIFSNMDMKQDQRLTVLLNKKDKHLSLRIADTQTGDSAIYFCAERNGGATNKLIFGTGTLLAVQP
Vbeta: DTEVTQTPKHLVMGMTNKKSLKCEQHMGHRAMYWYKQKAKKPPELMFVYSYEKLSINESVPSRFSPECPNSSLLNLHLHALQPEDSALYLCASSQDRTGAYSPLHFGNGTRLTVT
B2: recognises [2].

B3: TCR536 (TCR, V domains shown)
Valpha: AQSVAQPEDQVNVAEGNPLTVKCTYSVSGNPYLFWYVQYPNRGLQFLLKYITGDNLVKGSYGFEAEFNKSQTSFHLKKPSALVSDSALYFCAVSPLTSGTYKYIFGTGTRLKVLA
Vbeta: SQTIHQWPATLVQPVGSPLSLECTVEGTSNPNLYWYRQAAGRGLQLLFYSVGIGQISSEVPQNLSASRPQDRQFILSSKKLLLSDSGFYLCAWSEGDETQYFGPGTRLLVL
B3: recognises [3].

B4: TCR691 (TCR, V domains shown)
Valpha: GQSLEQPSEVTAVEGAIVQINCTYQTSGFYGLSWYQQHDGGAPTFLSYNALDGLEETGRFSSFLSRSDSYGYLLLQELQMKDSASYFCAVQAGTALIFGKGTTLSVSS
Vbeta: DTEVTQTPKHLVMGMTNKKSLKCEQHMGHRAMYWYKQKAKKPPELMFVYSYEKLSINESVPSRFSPECPNSSLLNLHLHALQPEDSALYLCASSQPGGGNTEAFFGQGTRLTVV
B4: recognises [4].

B5: TCR689 (TCR, V domains shown)
Valpha: GIQVEQSPPDLILQEGANSTLRCNFSDSVNNLQWFHQNPWGQLINLFYIPSGTKQNGRLSATTVATERYSLLYISSSQTTDSGVYFCAVVLSYNTDKLIFGTGTRLQVFP
Vbeta: DVKVTQSSRYLVKRTGEKVFLECVQDMDHENMFWYRQDPGLGLRLIYFSYDVKMKEKGDIPEGYSVSREKKERFSLILESASTNQTSMYLCASSLSPPGYLETQYFGPGTRLLVL
B5: recognises [5].

B6: TCR707 (TCR, V domains shown)
Valpha: QKEVEQNSGPLSVPEGAIASLNCTYSDRGSQSFFWYRQYSGKSPELIMSIYSNGDKEDGRFTAQLNKASQYVSLLIRDSQPSDSATYLCAVNVFNKFYFGSGTKLNVKP
Vbeta: DAGVIQSPRHEVTEMGQEVTLRCKPISGHDYLFWYRQTMMRGLELLIYFNNNVPIDDSGMPEDRFSAKMPNASFSTLKIQPSEPRDSAVYFCASSFLITDTQYFGPGTRLTVL
B6: recognises [6].

B7: TCR447 (TCR, V domains shown)
Valpha: EDQVTQSPEALRLQEGESSSLNCSYTVSGLRGLFWYRQDPGKGPEFLFTLYSAGEEKEKERLKATLTKKESFLHITAPKPEDSATYLCAVHHLNRDDKIIFGKGTRLHILP
Vbeta: DSGVTQTPKHLITATGQRVTLRCSPRSGDLSVYWYQQSLDQGLQFLIQYYNGEERAKGNILERFSAQQFPDLHSELNLSSLELGDSALYFCASSADLGTREQYFGPGTRLTVT
B7: recognises [7].

B8: TCR535 (TCR, V domains shown)
Valpha: AQKVTQAQTEISVVEKEDVTLDCVYETRDTTYYLFWYKQPPSGELVFLIRRNSFDEQNEISGRYSWNFQKSTSSFNFTITASQVVDSAVYFCALSTSMDSNYQLIWGAGTKLIIKP
Vbeta: EPEVTQTPSHQVTQMGQEVILRCVPISNHLYFYWYRQILGQKVEFLVSFYNNEISEKSEIFDDQFSVERPDGSNFTLKIRSTKLEDSAMYFCASSCWDRSTDTQYFGPGTRLTVL
B8: recognises [8].

B9: TCR538 (TCR, V domains shown)
Valpha: ILNVEQSPQSLHVQEGDSTNFTCSFPSSNFYALHWYRWETAKSPEALFVMTLNGDEKKKGRISATLNTKEGYSYLYIKGSQPEDSATYLCAFDNYGQNFVFGPGTRLSVLP
Vbeta: DVKVTQSSRYLVKRTGEKVFLECVQDMDHENMFWYRQDPGLGLRLIYFSYDVKMKEKGDIPEGYSVSREKKERFSLILESASTNQTSMYLCASSLTGSFNEQFFGPGTRLTVL
B9: recognises [9].

B10: TCR802 (TCR, V domains shown)
Valpha: AQSVSQHNHHVILSEAASLELGCNYSYGGTVNLFWYVQYPGQHLQLLLKYFSGDPLVKGIKGFEAEFIKSKFSFNLRKPSVQWSDTAEYFCAVNLLTDSWGKFQFGAGTQVVVTP
Vbeta: EPEVTQTPSHQVTQMGQEVILRCVPISNHLYFYWYRQILGQKVEFLVSFYNNEISEKSEIFDDQFSVERPDGSNFTLKIRSTKLEDSAMYFCATMGSGGNEQFFGPGTRLTVL
B10: recognises [10].

B11: TCR814 (TCR, V domains shown)
Valpha: TQLLEQSPQFLSIQEGENLTVYCNSSSVFSSLQWYRQEPGEGPVLLVTVVTGGEVKKLKRLTFQFGDARKDSSLHITAAQPGDTGLYLCAGLLGDSGAGSYQLTFGKGTKLSVIP
Vbeta: DAGITQSPRHKVTETGTPVTLRCHQTENHRYMYWYRQDPGHGLRLIHYSYGVKDTDKGEVSDGYSVSRSKTEDFLLTLESATSSQTSVYFCAISESWMSSYNEQFFGPGTRLTVL
B11: recognises [11].

B12: TCR445 (TCR, V domains shown)
Valpha: AQTVTQSQPEMSVQEAETVTLSCTYDTSESDYYLFWYKQPPSRQMILVIRQEAYKQQNATENRFSVNFQKAAKSFSLKISDSQLGDAAMYFCASSRWGGSEKLVFGKGTKLTVNP
Vbeta: DSGVTQTPKHLITATGQRVTLRCSPRSGDLSVYWYQQSLDQGLQFLIQYYNGEERAKGNILERFSAQQFPDLHSELNLSSLELGDSALYFCASSDSRTGGTDTQYFGPGTRLTVL
B12: recognises [12].

B13: TCR441 (TCR, V domains shown)
Valpha: ILNVEQSPQSLHVQEGDSTNFTCSFPSSNFYALHWYRWETAKSPEALFVMTLNGDEKKKGRISATLNTKEGYSYLYIKGSQPEDSATYLCAPSKYNNNDMRFGAGTRLTVKP
Vbeta: DAGITQSPRHKVTETGTPVTLRCHQTENHRYMYWYRQDPGHGLRLIHYSYGVKDTDKGEVSDGYSVSRSKTEDFLLTLESATSSQTSVYFCAISGTEDGELFFGEGSRLTVL
B13: recognises [13].

B14: TCR829 (TCR, V domains shown)
Valpha: QKEVEQDPGPLSVPEGAIVSLNCTYSNSAFQYFMWYRQYSRKGPELLMYTYSSGNKEDGRFTAQVDKSSKYISLFIRDSQPSDSATYLCAMSPTYSGAGSYQLTFGKGTKLSVIP
Vbeta: GAVVSQHPSWVICKSGTSVKIECRSLDFQATTMFWYRQFPKQSLMLMATSNEGSKATYEQGVEKDKFLINHASLTLSTLTVTSAHPEDSSFYICSASLLGEGYEQYFGPGTRLTVT
B14: recognises [14].

B15: TCR798 (TCR, V domains shown)
Valpha: AQSVTQLDSQVPVFEEAPVELRCNYSSSVSVYLFWYVQYPNQGLQLLLKYLSGSTLVKGINGFEAEFNKSQTSFHLRKPSVHISDTAEYFCAVSYSGSARQLTFGSGTQLTVLP
Vbeta: DAGVIQSPRHEVTEMGQEVTLRCKPISGHNSLFWYRQTMMRGLELLIYFNNNVPIDDSGMPEDRFSAKMPNASFSTLKIQPSEPRDSAVYFCASNPGGRGEKLFFGSGTQLSVL
B15: recognises [15].

B16: TCR682 (TCR, V domains shown)
Valpha: AQSVTQPDIHITVSEGASLELRCNYSYGATPYLFWYVQSPGQGLQLLLKYFSGDTLVQGIKGFEAEFKRSQSSFNLRKPSVHWSDAAEYFCAVAPDNYGQNFVFGPGTRLSVLP
Vbeta: DAMVIQNPRYQVTQFGKPVTLSCSQTLNHNVMYWYQQKSSQAPKLLFHYYDKDFNNEADTPDNFQSRRPNTSFCFLDIRSPGLGDAAMYLCATYSSGANVLTFGAGSRLTVL
B16: recognises [16].

B17: TCR827 (TCR, V domains shown)
Valpha: GQQVMQIPQYQHVQEGEDFTTYCNSSTTLSNIQWYKQRPGGHPVFLIQLVKSGEVKKQKRLTFQFGEAKKNSSLHITATQTTDVGTYFCAAPDAGGTSYGKLTFGQGTILTVHP
Vbeta: NAGVTQTPKFQVLKTGQSMTLQCAQDMNHEYMSWYRQDPGMGLRLIHYSVGAGITDQGEVPNGYNVSRSTTEDFPLRLLSAAPSQTSVYFCASSPLNPYNEQFFGPGTRLTVL
B17: recognises [17].

B18: TCR696 (TCR, V domains shown)
Valpha: AQSVTQLDSHVSVSEGTPVLLRCNYSSSYSPSLFWYVQHPNKGLQLLLKYTSAATLVKGINGFEAEFKKSETSFHLTKPSAHMSDAAEYFCVVSAPDTGRRALTFGSGTRLQVQP
Vbeta: GAGVSQSPSNKVTEKGKDVELRCDPISGHTALYWYRQSLGQGLEFLIYFQGNSAPDKSGLPSDRFSAERTGGSVSTLTIQRTQQEDSAVYLCASSSGQGFTDTQYFGPGTRLTVL
B18: recognises [18].
